Target: SEQ ID NO: 33 (CODA71) versus wild type α7-nAChR (Homo sapiens, UniProt P36544, F159M/H163T/I152M/R155K/V154L/W156N/Y151P)
Assay: Sensitivity of parental chimera SEQ ID NO: 33 to ligands compared with wild type α7-nAChR
Text: To generate LGICs that conduct anion current following exposure to non-native small molecule agonists of the human α7-nAChR, chimeric ligand gated ion channel (LGIC) receptors comprising the ligand binding domain derived from the human α7 nicotinic acetylcholine receptor (α7-nAChR) and the chloride-conducting ion pore domain derived from the human GlyR1α were genetically engineered. […] SEQ ID NO:33 was approximate 2-fold less sensitive to nicotine and approximately 3-fold and 10-fold more sensitive to AZD-0328 and Facinicline/RG3487, respectively, than wild type. CODA71 is described in detail in WO2019104307 and WO2021035179, which are incorporated herein in their entireties.

B1: CODA71: parental chimeric LGIC: human α7-nAChR ligand binding domain with GlyRα1 Cys-loop fused to human GlyRα1 ion pore domain (protein)
chain: MRCSPGGVWLALAASLLHVSLQGEFQRKLYKELVKNYNPLERPVANDSQPLTVYFSLSLLQIMDVDEKNQVLTTNIWLQMSWTDHYLQWNVSEYPGVKTVRFPDGQIWKPDILLYNSADERFDATFHTNVLVNSSGHCQYLPPGIFKSSCPMDLKNFPMDVQTCKLKFGSWSYGGWSLDLQMQEADISGYIPNGEWDLVGIPGKRSERFYECCKEPYPDVTFTVTMRRRMGYYLIQMYIPSLLIVILSWISFWINMDAAPARVGLGITTVLTMTTQSSGSRASLPKVSYVKAIDIWMAVCLLFVFSALLEYAAVNFVSRQHKELLRFRRKRRHHKSPMLNLFQEDEAGEGRFNFSAYGMGPACLQAKDGISVKGANNSNTTNPPPAPSKSPEEMRKLFIQRAKKIDKISRIGFPMAFLIFNMFYWIIYKIVRREDVHNQ
modifications: synthetic sequence of chimeric LGIC
Ligand ABT-126
  sensitivity to ABT-126 compared with wild type α7-nAChR: approximately as sensitive
Ligand AZD-0328
  fold more sensitive to AZD-0328 than wild type: approximately 3 fold
Ligand Facinicline/RG3487
  fold more sensitive to Facinicline/RG3487 than wild type: ~10 fold
Ligand TC-6987
  sensitivity to TC-6987 compared with wild type α7-nAChR: approximately as sensitive
Ligand TC-6987, similar to wild type
  agonist activity of TC-6987 on the receptor: partial agonist activity
Ligand acetylcholine
  sensitivity to acetylcholine compared with wild type α7-nAChR: approximately as sensitive
Ligand nicotine
  fold less sensitive to nicotine than wild type: ~2 fold

From patent US20250152742A1, “COMPOSITIONS AND METHODS FOR NEUROLOGICAL DISEASES” (Trames Bio, Inc., priority 2022, published 2025)
